In IntAct's records for PubMed 17785451:

B1: CBL-interacting serine/threonine-protein kinase 24 (Arabidopsis thaliana (Mouse-ear cress)), Q9LDI3 (parent)
chain: MTKKMRRVGKYEVGRTIGEGTFAKVKFARNTDTGDNVAIKIMAKSTILKNRMVDQIKREISIMKIVRHPNIVRLYEVLASPSKIYIVLEFVTGGELFDRIVHKGRLEESESRKYFQQLVDAVAHCHCKGVYHRDLKPENLLLDTNGNLKVSDFGLSALPQEGVELLRTTCGTPNYVAPEVLSGQGYDGSAADIWSCGVILFVILAGYLPFSETDLPGLYRKINAAEFSCPPWFSAEVKFLIHRILDPNPKTRIQIQGIKKDPWFRLNYVPIRAREEEEVNLDDIRAVFDGIEGSYVAENVERNDEGPLMMNAFEMITLSQGLNLSALFDRRQDFVKRQTRFVSRREPSEIIANIEAVANSMGFKSHTRNFKTRLEGLSSIKAGQLAVVIEIYEVAPSLFMVDVRKAAGETLEYHKFYKKLCSKLENIIWRATEGIPKSEILRTITF
partner: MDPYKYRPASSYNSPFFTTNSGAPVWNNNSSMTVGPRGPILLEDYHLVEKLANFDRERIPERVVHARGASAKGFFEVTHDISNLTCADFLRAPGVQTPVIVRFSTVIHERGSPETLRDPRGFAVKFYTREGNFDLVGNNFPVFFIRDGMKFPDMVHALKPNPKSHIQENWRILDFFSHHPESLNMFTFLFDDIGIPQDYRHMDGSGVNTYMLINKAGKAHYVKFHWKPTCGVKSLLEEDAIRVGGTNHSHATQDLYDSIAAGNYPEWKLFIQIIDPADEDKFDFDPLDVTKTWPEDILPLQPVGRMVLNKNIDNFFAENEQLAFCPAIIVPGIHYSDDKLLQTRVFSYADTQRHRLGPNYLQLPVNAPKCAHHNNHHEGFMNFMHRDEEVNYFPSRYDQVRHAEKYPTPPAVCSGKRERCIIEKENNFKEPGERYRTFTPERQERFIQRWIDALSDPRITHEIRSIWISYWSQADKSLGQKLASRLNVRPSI

Variants of: B1
Conditions: with cata2_arath CAT2, P25819

Variant	effect of a mutation on the interaction
MTKKMRRVGKYEVGRTIGEGTFAKVKFARNTDTGDNVAINIMAKSTILKNRMVDQIKREISIMKIVRHPNIVRLYEVLASPSKIYIVLEFVTGGELFDRIVHKGRLEESESRKYFQQLVDAVAHCHCKGVYHRDLKPENLLLDTNGNLKVSDFGLSALPQEGVELLRTTCGTPNYVAPEVLSGQGYDGSAADIWSCGVILFVILAGYLPFSETDLPGLYRKINAAEFSCPPWFSAEVKFLIHRILDPNPKTRIQIQGIKKDPWFRLNYVPIRAREEEEVNLDDIRAVFDGIEGSYVAENVERNDEGPLMMNAFEMITLSQGLNLSALFDRRQDFVKRQTRFVSRREPSEIIANIEAVANSMGFKSHTRNFKTRLEGLSSIKAGQLAVVIEIYEVAPSLFMVDVRKAAGETLEYHKFYKKLCSKLENIIWRATEGIPKSEILRTITF [K40N]	increasing interaction
